These are literature values, as cited in patent publication US20100267610A1, “Polypeptide comprising a knottin protein moiety” (priority 2007, published 2010).

The target in this series is T1, PTH-1 receptor (P1R) (Homo sapiens, UniProt Q03431).
T1 sequence (Q03431 27-593): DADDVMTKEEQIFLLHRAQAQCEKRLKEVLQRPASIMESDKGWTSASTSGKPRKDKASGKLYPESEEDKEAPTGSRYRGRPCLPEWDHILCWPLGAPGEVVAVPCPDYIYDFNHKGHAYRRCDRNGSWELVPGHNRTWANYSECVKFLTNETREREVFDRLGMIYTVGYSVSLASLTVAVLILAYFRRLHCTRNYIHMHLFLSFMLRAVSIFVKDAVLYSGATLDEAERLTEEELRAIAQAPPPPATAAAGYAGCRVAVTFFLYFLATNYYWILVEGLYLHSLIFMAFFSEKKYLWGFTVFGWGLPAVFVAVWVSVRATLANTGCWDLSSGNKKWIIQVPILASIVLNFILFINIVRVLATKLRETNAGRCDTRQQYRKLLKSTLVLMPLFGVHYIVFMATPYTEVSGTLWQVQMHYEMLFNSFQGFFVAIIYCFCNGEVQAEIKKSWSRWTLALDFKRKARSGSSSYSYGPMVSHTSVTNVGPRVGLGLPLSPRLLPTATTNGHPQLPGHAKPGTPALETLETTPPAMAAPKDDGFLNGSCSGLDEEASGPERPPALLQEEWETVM
The following applies: Shimizu et al. 2000.

Where no end group is shown, it is not given here.

As for “PTH (1-14): shorter native analog of PTH, residues 1-14, from the literature (SVSEIQLMHNLGKH-NH2; UniProt P01270 32-45, looked up, fragment)”, the “activation of cAMP formation in cells” value is recorded as “able to activate cAMP formation at high micromolar concentrations”.
